# Laboratory results reported in the supplement of paper PMC7877785.
# ± gives the uncertainty stated by the source.
# Experiment: self-splicing fitness, log relative to wild type (ln ratio); higher = more splicing; Tetrahymena group I intron in knt gene, E. coli kanamycin selection, DiMSum; sequences stand for … in CUCUCU…GGAGGGAAAAGUUAUCAGGCAUGCACCUGGUAGCUAGUCUUUAAACCAAUAGAUUGCAUCGGUUUAAAAGGCAAGACCGUCAAAUUGCGGGAAAGGGGUCAACAGCCGUUCAGUACCAAGUCUCAGGGGAAACUUUGAGAUGGCCUUGCAAAGGGUAUGGUAAUAAGCUGACGGACAUGGUCCUAACCACGCAGCCAAGUCCUAAGUCAACAGAUCUUCUGUUGAUAUGGAUGCAGUUCACAGACUAAAUGUCGGUCGGGGAAGAUGUAUUCUUCUCAUAAGAUAUAGUCGGACCUCUCCUUAAUGGGAGCUAGCGGAUGAAGUGAUGCAACACUGGAGCCGCUGGGAACUAAUUUGUAUGCGAAAGUAUAUUGAUUAGUUUUGGAGUACUCGUGGUCG
# In short: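 Library with all eight P1ex-region intron nucleotides randomised, intron inside the knt kanamycin-resistance gene on pET-22b(+), in E. coli BL21(DE3). Cells grew overnight at 37°C or 30°C on LB agar with or without 25 μg/mL kanamycin (plus 100 μg/mL carbenicillin, 50 μM IPTG, 0.2% rhamnose), in six replicate transformations. Pooled colonies were amplicon-sequenced on Illumina HiSeq 2500. DiMSum fitness is the error-weighted combination of wild-type-normalised replicate fold changes, kanamycin versus none.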
Sequence,self-splicing fitness (ln) (30 °C),self-splicing fitness (ln) (37 °C)
UGGAAGCAAUAUUACGGGGU,-3.12 ± 0.31,-1.99 ± 0.35
CGUCAGCAAUAUUACGAUGU,-1.73 ± 0.11,-1.53 ± 0.098
ACUUAGCAAUAUUACGUCAC,-3.8 ± 0.22,-1.91 ± 0.2
UACUAGCAAUAUUACGAAAU,–,-3.34 ± 0.4
GCAAAGCAAUAUUACGACGC,-1.27 ± 0.082,-1.2 ± 0.11
CCAAAGCAAUAUUACGCGUU,-3.79 ± 0.12,-2.89 ± 0.16
AAGAAGCAAUAUUACGAUGC,-2.61 ± 0.13,-1.76 ± 0.17
GCUGAGCAAUAUUACGUCAG,-3.35 ± 0.24,-2.15 ± 0.26
AUUCAGCAAUAUUACGUCAC,-3.45 ± 0.2,-2.19 ± 0.25
UCAGAGCAAUAUUACGCAGA,-2.96 ± 0.27,-1.47 ± 0.21
GUGCAGCAAUAUUACGAGCA,-3.43 ± 0.31,-1.18 ± 0.15
ACCGAGCAAUAUUACGCUUA,-1.56 ± 0.14,-1.63 ± 0.17
GCAAAGCAAUAUUACGCCUU,-2.55 ± 0.23,-1.04 ± 0.21
CCAUAGCAAUAUUACGCAGU,-2.94 ± 0.14,-3.37 ± 0.42
AAAGAGCAAUAUUACGCCGU,-3.07 ± 0.48,-1.74 ± 0.42
UACAAGCAAUAUUACGUAAG,-3.96 ± 0.21,-3.05 ± 0.19
CCCAAGCAAUAUUACGUGCA,-3.83 ± 0.23,-2.57 ± 0.16
UGAUAGCAAUAUUACGGUUA,-0.585 ± 0.067,-0.467 ± 0.085
GCCCAGCAAUAUUACGCUUC,-1.18 ± 0.089,-1.33 ± 0.091
ACAGAGCAAUAUUACGGAGU,-3.05 ± 0.23,-3.24 ± 0.35
AGUUAGCAAUAUUACGUUUC,-3.37 ± 0.34,–
UCCGAGCAAUAUUACGGAAU,-1.91 ± 0.14,-1.77 ± 0.2
UAAGAGCAAUAUUACGCGUU,–,-2.04 ± 0.33
ACCCAGCAAUAUUACGUCAA,-1.88 ± 0.099,-1.59 ± 0.11
UCAAAGCAAUAUUACGUCCG,-0.781 ± 0.12,-0.625 ± 0.16
AAAGAGCAAUAUUACGGCAG,-4.02 ± 0.42,-3.07 ± 0.29

Sequence,self-splicing fitness (ln) (30 °C),self-splicing fitness (ln) (37 °C)
UUAUAGCAAUAUUACGUAAG,-1.38 ± 0.08,-0.386 ± 0.11
CGUGAGCAAUAUUACGUACG,–,-0.531 ± 0.23
CAAAAGCAAUAUUACGUCUG,-0.838 ± 0.042,-0.0271 ± 0.052
UGGCAGCAAUAUUACGUUCA,-0.133 ± 0.084,0.272 ± 0.1
UAGCAGCAAUAUUACGGAUU,-3.22 ± 0.14,-1.08 ± 0.13
GUCCAGCAAUAUUACGGUCA,-0.244 ± 0.07,-0.0837 ± 0.072
UAAUAGCAAUAUUACGGAUC,–,-2.05 ± 0.41
CAAAAGCAAUAUUACGAGUU,-3.02 ± 0.15,-2.46 ± 0.16
AAAGAGCAAUAUUACGUAAU,-2.16 ± 0.15,0.0244 ± 0.13
CGUGAGCAAUAUUACGGGCC,-1.9 ± 0.32,–
UAUGAGCAAUAUUACGCAAA,-2.74 ± 0.45,–
CGUCAGCAAUAUUACGGCUA,-0.938 ± 0.11,-0.751 ± 0.11
UCCUAGCAAUAUUACGAGCU,-3.57 ± 0.37,-1.99 ± 0.38
AGAAAGCAAUAUUACGGUUG,-3.65 ± 0.17,-1.78 ± 0.16
CGUAAGCAAUAUUACGAGUG,-2.51 ± 0.13,-0.853 ± 0.1
ACGUAGCAAUAUUACGGCCA,0.73 ± 0.19,0.143 ± 0.18
AGCAAGCAAUAUUACGAUGC,-2.08 ± 0.11,-1.71 ± 0.14
GUCGAGCAAUAUUACGCGGA,-3.08 ± 0.29,-1.25 ± 0.19
CAGGAGCAAUAUUACGCUGA,-4.15 ± 0.23,-3.13 ± 0.2
GUGUAGCAAUAUUACGCUGU,-2.96 ± 0.2,-3.45 ± 0.39
UUUAAGCAAUAUUACGGCUU,-1.8 ± 0.14,-1.86 ± 0.27
CACUAGCAAUAUUACGAUUU,-2.4 ± 0.12,-2.2 ± 0.15
AGCAAGCAAUAUUACGUCUC,-2.61 ± 0.29,–
AAUCAGCAAUAUUACGGGCC,-3.19 ± 0.44,-2.58 ± 0.28
CGUGAGCAAUAUUACGUAAA,–,-2.03 ± 0.33
CUCGAGCAAUAUUACGCUUA,-2.27 ± 0.47,-2.22 ± 0.34

Sequence,self-splicing fitness (ln) (30 °C),self-splicing fitness (ln) (37 °C)
AAUAAGCAAUAUUACGUCGU,-0.729 ± 0.079,-0.613 ± 0.093
ACACAGCAAUAUUACGCGGC,-2.29 ± 0.12,-2.92 ± 0.16
CCUCAGCAAUAUUACGGGGU,-3.88 ± 0.15,-3.49 ± 0.2
UACAAGCAAUAUUACGUAUA,-2.22 ± 0.13,-0.891 ± 0.12
AACGAGCAAUAUUACGAAGU,-2.75 ± 0.17,-2.86 ± 0.31
CGUAAGCAAUAUUACGCCUG,-1.21 ± 0.11,-0.643 ± 0.12
GGUCAGCAAUAUUACGAUCG,0.0558 ± 0.12,0.097 ± 0.16
AACAAGCAAUAUUACGCACA,0.157 ± 0.071,-0.163 ± 0.094
AUGAAGCAAUAUUACGGACC,-0.516 ± 0.22,0.108 ± 0.23
CAUCAGCAAUAUUACGGGCA,-2.51 ± 0.12,-1.83 ± 0.14
CAUGAGCAAUAUUACGAAGA,–,-2.3 ± 0.26
AACAAGCAAUAUUACGUUGA,-3.31 ± 0.13,-1.95 ± 0.1
GUGCAGCAAUAUUACGUGCU,-3.49 ± 0.32,-2.35 ± 0.35
UGCGAGCAAUAUUACGGAUU,–,-3.08 ± 0.4
UUGAAGCAAUAUUACGCGUC,-3.32 ± 0.33,-1.02 ± 0.33
GCGCAGCAAUAUUACGUAGA,-2.28 ± 0.1,-0.72 ± 0.099
UUCGAGCAAUAUUACGGGUG,-1.78 ± 0.074,-1.42 ± 0.086
ACGUAGCAAUAUUACGGUAC,-3.46 ± 0.18,-2.57 ± 0.3
CCGCAGCAAUAUUACGCACG,-0.993 ± 0.097,-0.578 ± 0.11
AGUCAGCAAUAUUACGACAA,-0.509 ± 0.098,0.177 ± 0.13
UACGAGCAAUAUUACGUCUA,-0.512 ± 0.1,-0.152 ± 0.11
UAGCAGCAAUAUUACGCUUA,-0.452 ± 0.084,-0.689 ± 0.087
CUCCAGCAAUAUUACGUCAG,-1.2 ± 0.067,-0.906 ± 0.098
CAGAAGCAAUAUUACGAAGG,-1.23 ± 0.12,-1.1 ± 0.16
ACUUAGCAAUAUUACGCUCC,-1.44 ± 0.22,0.041 ± 0.19
GAACAGCAAUAUUACGCCCA,0.617 ± 0.17,-0.316 ± 0.24
